According to patent publication US7223547B2, “Polypeptides having a functional domain of interest and methods of identifying and using same” (Cytogen Corporation, priority 1995, dated 2007):
Values belong to the molecule of their own block, whether it stands above or below them. * marks the point of attachment. Biotin = O=C1N[C@H]2[C@H](CS[C@H]2CCCCC(=O)*)N1

How the values were obtained:
[1] = system: virus that causes hepatitis B; conditions: at given dosages; cited from earlier work
[2] = patients to whom the drug is administered; cited from earlier work
SH3P14, human H74 = target: T1, SH3P14, human H74 (human, UniProt Q9UNF0 118-486, limits assumed); assay: plaque-lift screen of human prostate cancer and bone marrow cDNA expression libraries with biotinylated peptide complexed to SA-AP (T12SRC.4 also present in the initial screens)
T1 construct: Protein encoded by a cDNA clone from a lambda gt11 or gt22a human library, on plaque-lift filters
T1 sequence: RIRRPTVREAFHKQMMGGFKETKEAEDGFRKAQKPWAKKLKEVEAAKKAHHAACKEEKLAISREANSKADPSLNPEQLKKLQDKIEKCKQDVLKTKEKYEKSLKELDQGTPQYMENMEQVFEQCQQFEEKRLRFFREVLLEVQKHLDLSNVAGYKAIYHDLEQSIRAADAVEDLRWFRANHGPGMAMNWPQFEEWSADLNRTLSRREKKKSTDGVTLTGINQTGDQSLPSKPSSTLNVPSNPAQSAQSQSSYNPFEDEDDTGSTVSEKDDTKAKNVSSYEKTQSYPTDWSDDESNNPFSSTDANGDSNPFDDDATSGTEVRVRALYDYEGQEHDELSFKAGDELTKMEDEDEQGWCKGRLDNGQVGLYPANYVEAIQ

[3] = target: T2, SH3P18, a novel human gene (human, UniProt Q9NZM3 952-1192); assay: as above
T2 construct: Fragment encoded by a cDNA clone, with at least three SH3 domains, on plaque-lift filters
T2 sequence: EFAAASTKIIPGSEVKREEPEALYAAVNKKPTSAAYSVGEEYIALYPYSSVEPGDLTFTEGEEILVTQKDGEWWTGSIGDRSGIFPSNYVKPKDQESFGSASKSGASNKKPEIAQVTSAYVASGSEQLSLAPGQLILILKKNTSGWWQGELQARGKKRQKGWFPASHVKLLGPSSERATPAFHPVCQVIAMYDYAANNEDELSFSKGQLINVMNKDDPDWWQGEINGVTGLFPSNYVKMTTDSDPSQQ

[4] = target: T3, SH3P9, a novel human gene (human, UniProt O00499 44-593); assay: as above
T3 construct: Protein encoded by a cDNA clone from a lambda gt11 or gt22a human library, on plaque-lift filters; The vector fusion partner is not described; also called human homolog of SH3P9
T3 sequence: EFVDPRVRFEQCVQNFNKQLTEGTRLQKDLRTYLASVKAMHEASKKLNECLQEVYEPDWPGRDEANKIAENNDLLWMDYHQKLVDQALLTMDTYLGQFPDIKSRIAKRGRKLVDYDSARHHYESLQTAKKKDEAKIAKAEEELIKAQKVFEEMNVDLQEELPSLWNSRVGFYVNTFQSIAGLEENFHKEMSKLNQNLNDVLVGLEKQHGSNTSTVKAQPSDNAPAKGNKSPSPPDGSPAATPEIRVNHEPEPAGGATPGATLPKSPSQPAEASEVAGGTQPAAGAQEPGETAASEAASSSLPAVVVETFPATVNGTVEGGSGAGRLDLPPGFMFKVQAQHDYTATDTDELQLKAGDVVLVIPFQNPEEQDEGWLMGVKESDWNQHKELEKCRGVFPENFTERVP

[5] = target: T4, SH3P17, a novel human gene (human, UniProt Q15811 729-1220); assay: as above
T4 construct: Fragment encoded by a cDNA clone, with at least four SH3 domains, on plaque-lift filters
T4 sequence: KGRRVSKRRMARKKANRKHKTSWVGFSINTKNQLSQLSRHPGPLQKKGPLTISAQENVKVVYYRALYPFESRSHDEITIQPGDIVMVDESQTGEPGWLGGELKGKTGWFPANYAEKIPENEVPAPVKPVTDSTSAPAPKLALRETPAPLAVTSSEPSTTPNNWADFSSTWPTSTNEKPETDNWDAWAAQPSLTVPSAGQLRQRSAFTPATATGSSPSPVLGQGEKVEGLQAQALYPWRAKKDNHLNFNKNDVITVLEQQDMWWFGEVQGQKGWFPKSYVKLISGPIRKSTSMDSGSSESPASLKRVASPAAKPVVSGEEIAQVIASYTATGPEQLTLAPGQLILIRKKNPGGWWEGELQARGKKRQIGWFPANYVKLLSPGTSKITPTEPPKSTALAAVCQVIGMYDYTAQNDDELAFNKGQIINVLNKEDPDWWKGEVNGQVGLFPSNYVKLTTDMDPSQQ

SH3P6, mouse MLN50 = target: T5, SH3P6, mouse MLN50 (mouse, UniProt Q61792 59-263); assay: plaque-lift screen of mouse 16 day embryo cDNA expression library with biotinylated peptide complexed to SA-AP
T5 construct: Protein encoded by a cDNA clone, on plaque-lift filters; not shown: N-terminal phi10 leader (T7-Tag) common to all lambda EXlox recombinants
T5 sequence: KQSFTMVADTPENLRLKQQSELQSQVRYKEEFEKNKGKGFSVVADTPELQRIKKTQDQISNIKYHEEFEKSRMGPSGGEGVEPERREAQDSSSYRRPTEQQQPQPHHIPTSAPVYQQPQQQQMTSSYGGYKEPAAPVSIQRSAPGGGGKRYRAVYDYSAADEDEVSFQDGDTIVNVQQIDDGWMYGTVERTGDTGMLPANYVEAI

SH3P5, mouse Cortactin = target: T6, SH3P5, mouse Cortactin (mouse, UniProt Q60598 1-546); assay: as above
T6 construct: Protein encoded by a cDNA clone, on plaque-lift filters; not shown: N-terminal phi10 leader (T7-Tag) common to all lambda EXlox recombinants

[6] = target: T7, SH3P12, a novel mouse gene (mouse, UniProt Q62417 1-1290); assay: as above
T7 construct: Protein encoded by a cDNA clone, on plaque-lift filters; not shown: N-terminal phi10 leader (T7-Tag) common to all lambda EXlox recombinants
T7 sequence: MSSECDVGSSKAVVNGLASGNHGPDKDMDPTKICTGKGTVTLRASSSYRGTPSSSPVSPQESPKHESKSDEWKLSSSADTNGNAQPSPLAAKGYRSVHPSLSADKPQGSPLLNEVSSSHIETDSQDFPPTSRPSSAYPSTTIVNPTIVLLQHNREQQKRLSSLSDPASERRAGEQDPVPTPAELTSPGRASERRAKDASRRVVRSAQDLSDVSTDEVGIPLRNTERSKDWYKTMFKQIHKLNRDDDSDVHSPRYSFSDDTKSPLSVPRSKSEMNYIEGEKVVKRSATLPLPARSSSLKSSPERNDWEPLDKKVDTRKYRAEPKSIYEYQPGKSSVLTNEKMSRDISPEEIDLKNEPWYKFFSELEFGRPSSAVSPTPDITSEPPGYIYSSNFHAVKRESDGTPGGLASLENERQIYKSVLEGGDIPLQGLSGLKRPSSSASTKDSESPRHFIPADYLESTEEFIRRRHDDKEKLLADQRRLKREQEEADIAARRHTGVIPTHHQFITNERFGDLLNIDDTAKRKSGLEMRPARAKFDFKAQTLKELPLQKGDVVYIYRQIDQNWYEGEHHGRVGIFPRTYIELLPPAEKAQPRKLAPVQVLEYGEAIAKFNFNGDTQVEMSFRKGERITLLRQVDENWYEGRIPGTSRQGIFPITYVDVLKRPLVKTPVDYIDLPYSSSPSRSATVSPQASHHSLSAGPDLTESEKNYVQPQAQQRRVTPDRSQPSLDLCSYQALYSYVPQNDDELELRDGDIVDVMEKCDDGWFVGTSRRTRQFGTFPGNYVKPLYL

[7] = target: T8, SH3P9, a novel mouse gene (mouse, UniProt O08539 2-588); assay: as above
T8 construct: Protein encoded by a cDNA clone, on plaque-lift filters; also called SH3P9 (mouse); not shown: N-terminal phi10 leader (T7-Tag) common to all lambda EXlox recombinants
T8 sequence: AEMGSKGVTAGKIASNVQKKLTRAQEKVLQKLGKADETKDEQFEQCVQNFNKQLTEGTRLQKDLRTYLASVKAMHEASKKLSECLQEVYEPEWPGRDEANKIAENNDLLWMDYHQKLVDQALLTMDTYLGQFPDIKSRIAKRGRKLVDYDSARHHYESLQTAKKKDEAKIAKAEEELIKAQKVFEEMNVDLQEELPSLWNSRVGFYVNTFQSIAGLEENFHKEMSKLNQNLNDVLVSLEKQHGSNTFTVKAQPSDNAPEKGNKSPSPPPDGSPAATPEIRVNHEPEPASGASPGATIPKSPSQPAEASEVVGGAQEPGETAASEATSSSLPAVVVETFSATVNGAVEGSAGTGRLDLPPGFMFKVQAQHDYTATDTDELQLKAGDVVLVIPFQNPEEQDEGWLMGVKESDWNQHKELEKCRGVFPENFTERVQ

[8] = target: T9, SH3P8, a novel mouse gene (mouse, UniProt Q62419 1-368); assay: as above
T9 construct: Protein encoded by a cDNA clone, on plaque-lift filters; not shown: N-terminal phi10 leader (T7-Tag) common to all lambda EXlox recombinants

[9] = target: T10, SH3P7, a novel mouse gene (mouse, UniProt Q62418 1-436); assay: as above
T10 construct: Protein encoded by a cDNA clone, on plaque-lift filters; not shown: N-terminal phi10 leader (T7-Tag) common to all lambda EXlox recombinants

SH3P10, mouse HS1 = target: T11, SH3P10, mouse HS1 (mouse, UniProt P49710 1-486); assay: as above
T11 construct: Protein encoded by a cDNA clone, on plaque-lift filters; also called SPY75/HS1; not shown: N-terminal phi10 leader (T7-Tag) common to all lambda EXlox recombinants
T11 sequence: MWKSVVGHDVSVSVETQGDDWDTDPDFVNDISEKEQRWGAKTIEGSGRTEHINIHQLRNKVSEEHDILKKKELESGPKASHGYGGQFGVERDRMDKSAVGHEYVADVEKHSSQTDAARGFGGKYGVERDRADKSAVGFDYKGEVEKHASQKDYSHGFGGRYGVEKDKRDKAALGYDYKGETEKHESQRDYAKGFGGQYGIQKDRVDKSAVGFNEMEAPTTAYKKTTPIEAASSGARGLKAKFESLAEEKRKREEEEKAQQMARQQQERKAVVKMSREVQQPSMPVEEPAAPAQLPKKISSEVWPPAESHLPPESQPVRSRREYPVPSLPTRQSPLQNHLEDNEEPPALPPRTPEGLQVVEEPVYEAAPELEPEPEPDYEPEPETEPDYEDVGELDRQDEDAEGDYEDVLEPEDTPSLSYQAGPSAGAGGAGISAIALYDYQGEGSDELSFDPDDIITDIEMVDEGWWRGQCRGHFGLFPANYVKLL

[10] = target: T12, SH3P13, a novel mouse gene (mouse, UniProt Q62421 1-347); assay: as above
T12 construct: Protein encoded by a cDNA clone, on plaque-lift filters; not shown: N-terminal phi10 leader (T7-Tag) common to all lambda EXlox recombinants
T12 sequence: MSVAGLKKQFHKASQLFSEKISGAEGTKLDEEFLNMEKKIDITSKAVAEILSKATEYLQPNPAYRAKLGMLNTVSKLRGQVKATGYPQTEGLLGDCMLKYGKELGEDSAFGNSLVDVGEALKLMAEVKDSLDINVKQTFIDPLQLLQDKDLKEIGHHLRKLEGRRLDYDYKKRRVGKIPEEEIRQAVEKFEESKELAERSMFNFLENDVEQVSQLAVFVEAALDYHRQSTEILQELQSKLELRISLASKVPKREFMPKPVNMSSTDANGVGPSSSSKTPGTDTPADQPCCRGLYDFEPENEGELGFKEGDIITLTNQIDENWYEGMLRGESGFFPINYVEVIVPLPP

SH3P11, mouse Crk = target: T13, SH3P11, mouse Crk (mouse, UniProt Q64010 1-304); assay: as above
T13 construct: Protein encoded by a cDNA clone, on plaque-lift filters; not shown: N-terminal phi10 leader (T7-Tag) common to all lambda EXlox recombinants
T13 sequence (Q64010 whole entry): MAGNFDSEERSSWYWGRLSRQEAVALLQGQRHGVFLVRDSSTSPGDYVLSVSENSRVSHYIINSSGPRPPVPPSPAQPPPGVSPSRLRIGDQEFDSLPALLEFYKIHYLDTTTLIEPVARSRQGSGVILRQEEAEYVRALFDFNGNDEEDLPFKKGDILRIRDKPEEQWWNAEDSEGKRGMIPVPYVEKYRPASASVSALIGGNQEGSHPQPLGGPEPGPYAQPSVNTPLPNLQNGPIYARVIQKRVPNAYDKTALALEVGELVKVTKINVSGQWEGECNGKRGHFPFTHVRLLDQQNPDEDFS

T6 sequence (Q60598 whole entry S298P): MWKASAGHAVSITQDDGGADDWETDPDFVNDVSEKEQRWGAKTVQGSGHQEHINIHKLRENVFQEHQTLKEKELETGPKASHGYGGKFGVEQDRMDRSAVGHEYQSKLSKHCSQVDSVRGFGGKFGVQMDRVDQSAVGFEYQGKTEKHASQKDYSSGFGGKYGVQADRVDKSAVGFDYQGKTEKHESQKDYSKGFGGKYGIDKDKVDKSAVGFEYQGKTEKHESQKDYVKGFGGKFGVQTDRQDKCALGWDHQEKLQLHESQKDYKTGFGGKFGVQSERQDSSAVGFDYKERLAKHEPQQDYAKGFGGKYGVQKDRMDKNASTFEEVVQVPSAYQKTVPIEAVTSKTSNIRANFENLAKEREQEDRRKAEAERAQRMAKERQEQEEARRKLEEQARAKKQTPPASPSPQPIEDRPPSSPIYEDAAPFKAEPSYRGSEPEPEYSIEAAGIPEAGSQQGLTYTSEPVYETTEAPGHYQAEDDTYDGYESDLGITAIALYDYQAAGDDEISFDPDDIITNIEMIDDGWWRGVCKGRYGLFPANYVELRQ
T10 sequence (Q62418 other isoform, or with tags, fused parts or gaps): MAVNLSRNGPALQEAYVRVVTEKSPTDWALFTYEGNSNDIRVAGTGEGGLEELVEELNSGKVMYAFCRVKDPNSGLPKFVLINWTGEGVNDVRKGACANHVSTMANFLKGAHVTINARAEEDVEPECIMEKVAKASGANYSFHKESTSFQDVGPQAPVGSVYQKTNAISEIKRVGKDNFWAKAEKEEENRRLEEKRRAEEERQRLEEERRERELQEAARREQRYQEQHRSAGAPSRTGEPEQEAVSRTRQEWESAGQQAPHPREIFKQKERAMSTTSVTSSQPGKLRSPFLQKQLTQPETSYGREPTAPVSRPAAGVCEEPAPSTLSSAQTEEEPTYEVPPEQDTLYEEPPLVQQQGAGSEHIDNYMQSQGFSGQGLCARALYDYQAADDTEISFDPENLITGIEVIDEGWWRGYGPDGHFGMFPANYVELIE
T9 sequence (Q62419 other isoform, or with tags, fused parts or gaps): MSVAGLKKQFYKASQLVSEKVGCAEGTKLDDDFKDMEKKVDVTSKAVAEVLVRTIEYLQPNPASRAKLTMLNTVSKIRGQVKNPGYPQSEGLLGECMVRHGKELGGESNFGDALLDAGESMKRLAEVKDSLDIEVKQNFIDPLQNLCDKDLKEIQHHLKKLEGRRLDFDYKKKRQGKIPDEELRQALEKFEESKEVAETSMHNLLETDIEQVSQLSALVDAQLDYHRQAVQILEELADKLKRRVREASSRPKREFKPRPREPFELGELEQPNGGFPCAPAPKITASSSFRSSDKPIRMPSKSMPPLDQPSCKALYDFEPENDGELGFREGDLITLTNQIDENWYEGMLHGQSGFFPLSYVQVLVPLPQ

Molecule: O=c1[nH]c(=O)n([C@@H]2O[C@H](CO)[C@@H](O)[C@@H]2F)cc1I [FIAU]
effectiveness against the virus that causes hepatitis B [1]: effective | suspected toxic side effects [2]: liver failure in certain patients

binding result (SH3P14, human H74): binds | binding result [3]: binds | binding result [4]: binds | binding result [5]: binds
B1: T12SRC.1 (biotin-GILAPPVPPRNTR-NH2) (peptide)
peptide: Biotin-GILAPPVPPRNTR-NH2
SMILES: CC[C@H](C)[C@H](NC(=O)CNC(=O)CCCC[C@@H]1SC[C@@H]2NC(=O)N[C@@H]21)C(=O)N[C@@H](CC(C)C)C(=O)N[C@@H](C)C(=O)N1CCC[C@H]1C(=O)N1CCC[C@H]1C(=O)N[C@H](C(=O)N1CCC[C@H]1C(=O)N1CCC[C@H]1C(=O)N[C@@H](CCCNC(=N)N)C(=O)N[C@@H](CC(N)=O)C(=O)N[C@H](C(=O)N[C@@H](CCCNC(=N)N)C(N)=O)[C@@H](C)O)C(C)C
notes: Used complexed with streptavidin-alkaline phosphatase; also called variant of the pSrcCII peptide

binding result (SH3P6, mouse MLN50): binds | binding result (SH3P5, mouse Cortactin): binds | binding result [6]: binds | binding result [7]: binds | binding result [8]: binds | binding result [9]: binds | binding result (SH3P10, mouse HS1): binds | binding result [10]: binds | binding result (SH3P11, mouse Crk): binds
B2: pCort (biotin-SGSGSRLTPQSKPPLPPKPSWVSR-NH2) (peptide)
peptide: Biotin-SGSGSRLTPQSKPPLPPKPSWVSR-NH2
SMILES: CC(C)C[C@H](NC(=O)[C@H](CCCNC(=N)N)NC(=O)[C@H](CO)NC(=O)CNC(=O)[C@H](CO)NC(=O)CNC(=O)[C@H](CO)NC(=O)CCCC[C@@H]1SC[C@@H]2NC(=O)N[C@@H]21)C(=O)N[C@H](C(=O)N1CCC[C@H]1C(=O)N[C@@H](CCC(N)=O)C(=O)N[C@@H](CO)C(=O)N[C@@H](CCCCN)C(=O)N1CCC[C@H]1C(=O)N1CCC[C@H]1C(=O)N[C@@H](CC(C)C)C(=O)N1CCC[C@H]1C(=O)N1CCC[C@H]1C(=O)N[C@@H](CCCCN)C(=O)N1CCC[C@H]1C(=O)N[C@@H](CO)C(=O)N[C@@H](Cc1c[nH]c2ccccc12)C(=O)N[C@H](C(=O)N[C@@H](CO)C(=O)N[C@@H](CCCNC(=N)N)C(N)=O)C(C)C)[C@@H](C)O
notes: Synthetic peptide with the Cortactin SH3 recognition unit motif; used complexed with streptavidin-alkaline phosphatase
